Consider two substances from doi:10.1101/2022.09.07.507039.

Assay [1] has as its target native Gli123 protein (Mycoplasma mobile). The assay is described as follows: negative-staining EM with single-particle analysis.
Assay [2] has the same target. The assay is described as follows: SEC.
Assay [3] has as its target recombinant Gli123 (Mycoplasma mobile). The assay is described as follows: SEC-SAXS. On the technique in general: SEC sorts molecules by how far they enter the pores of the column.

One may read the stoichiometry N as a count of units in the complex or per binding partner. Take native Gli123 protein (natural protein): the stoichiometry N in assay [1] and in assay [2] was 2 in each case. For recombinant Gli123 (natural protein), the stoichiometry N in assay [3] amounted to 2.
